# System: not listed separately
# Assay: In vivo carboxylate reductase screening, substrate consumption by LC-MS, heptanedioate
# Format: cell-based, Escherichia coli
# Details: 541 enzymes screened in vivo
# Method: To screen carboxylate reductases in vivo, […] T7- pUC expression vectors was co-transformed into T7 Express lysY/Iq with the phosphopantetheinyl transferase sfp from Bacillus subtilis on a T7-pCDF expression vector. Biological duplicates of the resulting strains were incubated in 0.5 mL of terrific broth containing either 1 g/L heptanedioate or 1 g/L monomethyl heptanedioate and supplemented with 0.4 mM IPTG in 96-well deep well plates. The plates were incubated for 30 h at 30° C. in a shaking incubator. The cells were then pelleted, and culture supernatants from the same strains in media containing either heptanedioate or monomethyl heptanedioate were combined. The combined supernatants were analyzed by LC-MS to determine the concentration of heptanedioate and monomethyl heptanedioate. Carboxylate reductase activity on heptanedioate or monomethyl heptanedioate was reflected by consumption of the respective substrate in the medium.
row,Molecule,"substrate preference, heptanedioic acid to 7-oxoheptanoate"
1,"SEQ ID NO: 203: Labilithrix luteola carboxylate reductase (protein, listed as Labilithrix luteola) MDISRFLDLRIAPRAVFDALEERKTRARFMVPTAPGSNEWRPVTWGAFAQEIRELALFLSTVLSSGDRGAVYAPNRVEWASAALAIQAAGGVIVPIYPASTPDQLSYVASHSDAKVIFVDTAPLLTRLFATWNSTPGVEKIVVLDDGIDVARVYESAREKGIPVPSLDAVERKVLSIGKARGIGAARDQEDPQAFERTMAAISLDQAGMMLYTSGTSGNPKGVPLTHRNVAVNGLDWLKCNYPLLEEGDVDILWLPMSHIFGFGEMCLGNTLGWTSYLADPATCLGRLPEVTPNIFMSVPSHWEKLALMAMHEPTPQARLDKFKAATGGKLRFCLSGGAGLKREVKDFFYSCGVLIVEGYGLTETSPTLTLNRPDAFRFDTVGKTLPSVELRLADDGEILARGASVFGGYHKDPEATREAFTEDGWFKTGDVGRFTDDGFLQIIDRKKDILVTAGGKNVPPANIEIRFQDDPLFAHVVVYGDAKKYLVAGVWLNEEAMSSQLASVPKDQQESARRDLVQKRIDHVNASLASYETIKKFSIIGEPLTVEAGLLTPSLKMRRKKVYEHFHGIFEGMFEDTQGKGAASSTASQGSGA",preferred acting upon heptanedioic acid to form 7-oxoheptanoate
2,"SEQ ID NO: 200: Tetrahymena thermophila (strain SB210) carboxylate reductase (protein, Tetrahymena thermophila (strain SB210), Tetrahymena thermophila (strain SB210) carboxylate reductase) MGANQSSRIYNVPIDEKKDGYSQIMRHPKYIDKLEYKPIPEIDNVQDLVLHGYSNSKEMNFFGKKNPVSNEFEYMTYDQVIEQAKQLGSAVKNLQFLKESSEQSNQKMELIGIYSKNRIEWGIADIANSLYGYTMVPLYDSLGPDSISYVLANSEITTCYCSAASVLTLSKTKDLHHLKNIISFDHVSEDLIELVKQRGIVVHLFKDIVEKGSLNVLPLPKLTRDTIFTFCYTSGTTGNPKSAMISHKNILASVTNYDKSDCFLTQDDVHLSYLPLPHIYERFINVYCWFKGTKIAFYSGDVHKIQEDIIASKPTCFSAVPRLLNRFYDAINSKLNQATGFQKILIQHALQTKLENIQKNGVYTHILYDKIIFNKIREQFGGRIRQLVCGSAPTSPKVFDFFKAVLSCSVIEGFGQTELSGVVTIQVKADPKMGNVGGIGPSSELKLEDVPEMEYLSTDKDELGNPKPRGEICVRGYNVFSGYYKDEEKTKEAIDQEGWFHTGDIGEIIPNGGLKIIDRKKNLFKLSQAEYVSPEKVENIYVRARGVQEVYIHGESLYNYCIGIIVPSQEELLKIAAELNISETDIASLCKNQQIISWYIKTIHNLGKHEGLFSFEQPKKIYLEPKSFLVIGCVTNSFKLQRHHAKNYFKNIIQELYNNNNNQ",preferred acting upon heptanedioic acid to form 7-oxoheptanoate
3,"SEQ ID NO: 199: Caenorhabditis elegans carboxylate reductase (protein, Caenorhabditis elegans, Caenorhabditis elegans carboxylate reductase) MVDESDVKSALNGHDRPFTITLAIVLLKIVFFIYDVVTFIPFKIFADPAEKLEKSERVKAEPDNGDPTTPWKNVSAKDGLMNSSFEGIHDLGTQWEECVRRYGNQPCMGTREVLKVHKEKQSNGKIFEKWQMGDYHWRSYAQVDKRVNMIASGLTSLGQQEKEPIILFAETREEWMTTALACMKMNFPIATMYATLGDEAVQFAINEVGAKTIFTSEALISKVKKAMSNGATSIENIIFFDSVDPASRGESVDVDLPFTLLSFDQLLSRGEPYPVPTRSKKDDLAFIMYTSGTTGNPKGVMISHQNIVAVTAGQAFNIVLGPDDRYIGYLPLAHILEVCAEMVVFTKGVRIGYSSAQTLFDRAPKIMKGEHGDCWVLQPTLMACVPAVMDRIFKAVIDEVNANSELFKQLFKTCYERKRSRYEEGYTSFILNKLVFNRIGKLLGGKVRQILSGGAPLSPETQRFMNICFCCPVVQGYGLTETCGGGTIADIHDLSTGTVGPPLTCCEILLQEWAEAGYSPKNDPPQGEILISGPNVALGYFKNDEKTKEEFVKVNGKTFFATGDIGEFREDGSLKIIDRKKDLLKLAHGEYISLGKVETNLLTNPNVDNVCVYGDSNKSFLVALVVPNQKNLTQLASKAGASNDNFEKLCEDKKVVEALQKELAQYGASKLQRVEIPQKIFICHEPWTPASGLLTEALKLKRKNIEKAFRKELDELYK",preferred acting upon heptanedioic acid to form 7-oxoheptanoate
4,"SEQ ID NO: 201: Auxenochlorella protothecoides carboxylate reductase (protein, Auxenochlorella protothecoides, Auxenochlorella protothecoides carboxylate reductase) MSTFPPLDAQCVVLPEKLNAPGPWTVRRNANFPEALIDSFDGEESHVRTCYDLLEHSVVKYPDSPYLGTRSVDARGAPGPYAWLSYSQVGEARTQIGSGLAHLGVRPGSNVGLFSTNCADWVLVDAALHAYACVSVPLYDTLGADVVQFVNNHAELAAVACSAATLPALLETLPASPTVAVVVVYAAPAGFRMPATPPGSAARLVSLDRLRALGMKHPSPHVPPSPADTALINYTSGTTGMPKGVVLTHANIVASIAGQIRSTAVLATIDATERHISYLPLAHIFERVTYMSVTHRGGAIGFFRGDVLTLLEDIQALRPTYFPSVPRLWNRIYDRIMAQVAASSPVKRRLFETAYAYKKRHMAAGDMTGGPWAGFWNRLVFNKIKQAVGGEVRMMVSGASALSPEVFEFMRIVFDCVVIEGYGMTETTSGATISIPGDPVIGHVGIPTPACEVKLADVPEMGYTNADLPRPRGEICVRGPLRFKEYYKDPENTRETIDEEGWLHTGDIGTWLPGERLKIIDRKKNIFKLSQGEYVAPEKIENIYVRSPYVAQVFVHGDSLRSCIVGVVVPDPEVLLPWAKQRGLPQDLATLCEDEQVKAMIQKSLSEEARVAKLKGFEQVADIVLTPVPFSVETGTMTPTFKLKRPQLREAYAPALEAMYARLPM",preferred acting upon heptanedioic acid to form 7-oxoheptanoate
5,"SEQ ID NO: 204: Geotrichum candidum carboxylate reductase (protein, listed as Geotrichum candidum) MSATLNGTQFPPEVAARLRTYPIATDPSVNANTPLITDPVTVKPYKIGKPQAVPVPGSKVDGFSEVYRNAHCPDRLVTTVHPKITTVVEAFDACVSEYKNEKALGERVFDGKTKTWSKIYQYETYGTIAKRRLDIGKGISKVVQDVTGFDSRQTPYCLGLYGPNCSNWILTDLAAQTQSIPTVCLYDTLGPDSTRYIMTLTEMPAIVCSVAHIPFVLNIKDELPNLKVIIAMNPINNPDIVDKPGQSKKDVLTAWAKKSGVELFEFTEVEKIGRESGRGLHLPGPDTVLTINFTSGTTGNPKGVVISQANVLAGTIVARSQSTFNHRGSSGFLSFLPLAHIYERLTIHSVLTSGIPIGFFHGDVAELLDDIATYHPTIVAGVPRIWNRIAGAIRASTIEAPGIAGALSRKAYTTKLARLHETGDYHHPIWDRLWSNKIRTKTGFDQAKTFVTGSAPMARENIELIKVALGVEFVQGYGLTETMGGISVCSPGDNTAGSVGPVAITTEVKLRDLPTMNYSSSDKPFPRGEIMIRGPQVFMGYYKNEEATKGSIDEDGWFSSGDVGMIDDLGRLYVIDRVKNFFKLAQGEYVGPERIEALYQSSSGLVAQIFVEGNSLETYLVGIVGVNPEAYVQFLSHNFKMHIKPTDLEAIKKTFSRKDIRDTFLLELNVHAKDAQLKGYEKIKNVTLAIEPFSVENGTLTPTLKVKRPDAARLFKADVDAMYKEGPVEVKSKL",preferred acting upon heptanedioic acid to form 7-oxoheptanoate
6,"SEQ ID NO: 202: Lichtheimia corymbifera carboxylate reductase (protein, Lichtheimia corymbifera JMRC:FSU:9682, Lichtheimia corymbifera carboxylate reductase) MVTLTMDKQTIEIPNDVPGESPILRRTPELMDSFVPGINNIYDLFYNGYKLSRDQPCLGERPILDRTTGERAKQFEWQTYEQVAARVDNFGSGLKHVLQQIGESRPKQIPIGIWSVNRPEWHIVDWACAAHSLYVVALYDTLGPDTVEYVVNHAEIQVVVCTKEHVTDLLKLRSKLPQLKAIISFDTLEKEQSQALHAWAEEKDLLLVEFANVEQHGKENPVPHNPAQRSDLACIMYTSGTTGKSKGVMLTQGNFVAAVSGAIYNVKSSPADVGISYLPLGHIYGRVADAFTVAGGASLGFFSGKVDNLLEDMQILKPTLFNTVPRLLNRIYTGIVQSTLQAPGMMKKSTMSLIWNCSLGITDVGPKGALFRKAIATKLENLEQGKGTQHPVYDRLLFDKVRQVLGGRVRFINTGAAPLGKEVMQLLRVTLLADIRESYGATESCASLTMQIEGDPKPGCIGIPAPCNEMKLIDVPEMNYLTTDKPYARGEICVRGYNVSLGYYKDEEKTKEAFDKDGFYHTGDIGMIDERGTFMVIDRKKNIFKLSQGEYIAPEKIENIYARDILVSQIFVYGDSVQSCLVAIVVPDPIELGKLAQEKLPKLTSLSYEELCNNPEVHIAVLERMMENGKRAEMRGFEFVKAIHLDSKPFTVENNLLTPSLKLKRPEARKFFQKEIEQLYQKLSNSSAGSAARL",preferred acting upon heptanedioic acid to form 7-oxoheptanoate

# System: heptanedioyl-ACP methyl ester
# Assay: Cell lysate in vitro thioesterase screen (DTNB, absorbance at 410 nm) on heptanedioyl-ACP methyl ester
# Format: biochemical
# Details: 0.33 mM acyl-ACP substrate, 30° C., 30 min
row,Molecule,activity toward heptanedioyl-ACP methyl ester (hydrolysis)
1,"SEQ ID NO: 89: Clostridium cellulolyticum thioesterase (protein, listed as Clostridium cellulolyticum, Clostridium cellulolyticum (strain ATCC 35319 / DSM 5812 / JCM 6584 / H10), Clostridium cellulolyticum thioesterase) MEPLSIYKKNYHVDYGDADFYKRLKLSYLFNYFQNIAGLHSENTNVGIRKLQNDYGAAWVMTRMLMDINRMPECNEEISIETWPVEPKKKMIDRNFIVRDMDGSILASAISTWVILDMEKREMVRIDSVIPPQYPEFLKSKAIDRKFDKLKPSGQLQPAYKKLVGFSDIDINGHVNNAKYIDYILDCFTVEKHGEYRVKSIQINYVNEAVAGDIISLYKDTVDMDGSDKAVYITGINEVDGKVNFESHIRVQ",notable for their activity toward heptanedioyl-ACP methyl ester
2,"SEQ ID NO: 92: Treponema primitia thioesterase (protein, Treponema primitia (strain ATCC BAA-887 / DSM 12427 / ZAS-2), Treponema primitia thioesterase) MDVWKESYPVGFTAVDESEGLTLAAAFDYFQEAARRHAEVLGVGQEPMVQAGQGWVLSRISVLVERRPRQGELITVSTWPRGWEKLFALRDFDIRDESDKPIVRARSCWLIVNIEKRRPLRPQATMEKLPLNEGRDALPGGGVGLAPLENLLKAGDRVAAYSDIDYNGHVNNARYVQWVQDIADPTALVQAKTLRLDINYLSEVKIHEPIELWTEPLPAESDAVYTLGVEGRRNGGAVFRAELRIKD",notable for their activity toward heptanedioyl-ACP methyl ester

# Source: patent US10801046B2, “Methods and materials for biosynthesizing multifunctional, multivariate molecules via carbon chain modification” (INVISTA NORTH AMERICA S.A.R.L., priority 2016, dated 2020)
